Data taken from publication PMC12316734, “Lipase Activation by Poly(Methyl Methacrylate) in Dispersed Solution: Mechanistic Insights by Fluorescence Spectroscopy” (Applied Biochemistry and Biotechnology, 2025).

Columns and labels:
Assay in all cases: fluorogenic hydrolysis assay, Michaelis-Menten fit
Conditions in all cases: pH 7, 20 °C, no PMMA, 2% DMSO, 500 nM enzyme
[1] = substrate: CCCC(=O)Oc1ccc2c(C)cc(=O)oc2c1; type: biochemical, Thermomyces lanuginosus
Description: fluorogenic hydrolysis assay, Michaelis-Menten fit on Thermomyces lanuginosus lipase (TLL)

[2] = substrate: CCCC(=O)Oc1ccc2c(C)cc(=O)oc2c1; type: biochemical, Moesziomyces antarcticus
Description: fluorogenic hydrolysis assay, Michaelis-Menten fit on Candida antarctica lipase B (CalB)

[3] = substrate: CCCC(=O)Oc1ccc2c(C)cc(=O)oc2c1; type: biochemical, Bacillus subtilis
Description: fluorogenic hydrolysis assay, Michaelis-Menten fit on Bacillus subtilis lipase A (BSLA WT)

B1: Thermomyces lanuginosus lipase (TLL) (Thermomyces lanuginosus) (protein)
chain: EVSQDLFNQFNLFAQYSAAAYCGKNNDAPAGTNITCTGNACPEVEKADATFLYSFEDSGVGDVTGFLALDNTNKLIVLSFRGSRSIENWIGNLNFDLKEINDICSGCRGHDGFTSSWRSVADTLRQKVEDAVREHPDYRVVFTGHSLGGALATVAGADLRGNGYDIDVFSYGAPRVGNRAFAEFLTVQTGGTLYRITHTNDIVPRLPPREFGYSHSSPEYWIKSGTLVPVTRNDIVKIEGIDATGGNNQPNIPDIPAHLWYFGLIGTCL
notes: commercial lipase (gift of ASA Spezialenzyme), desalted; predominantly dimer in FCS
B1 gave a Km [1] of 20.8 ± 1.67 µM, a Vmax [1] of 4.16 µM/min and a Vmax/Km [1] of 0.2 min⁻¹.

B2: Candida antarctica lipase B (CalB) (Moesziomyces antarcticus) (protein)
chain: LPSGSDPAFSQPKSVLDAGLTCQGASPSSVSKPILLVPGTGTTGPQSFDSNWIPLSTQLGYTPCWISPPPFMLNDTQVNTEYMVNAITALYAGSGNNKLPVLTWSQGGLVAQWGLTFFPSIRSKVDRLMAFAPDYKGTVLAGPLDALAVSAPSVWQQTTGSALTTALRNAGGLTQIVPTTNLYSATDEIVQPQVSNSPLDSSYLFNGKNVQAQAVCGPLFVIDHAGSLTSQFSYVVGRSALRSTTGQARSADYGITDCNPLPANDLTPEQKVAAAALLAPAAAAIVAGPKQNCEPDLMPYARPFAVGKRTCSGIVTP
notes: commercial lipase B (Strem Chemicals), free enzyme in solution
For B2, the Km [2] was 26.6 ± 1.77 µM, the Vmax [2] was 5.43 µM/min and the Vmax/Km [2] was 0.2 min⁻¹.

B3: Bacillus subtilis lipase A (BSLA WT) (Bacillus subtilis subsp. subtilis str. 168) (protein)
chain: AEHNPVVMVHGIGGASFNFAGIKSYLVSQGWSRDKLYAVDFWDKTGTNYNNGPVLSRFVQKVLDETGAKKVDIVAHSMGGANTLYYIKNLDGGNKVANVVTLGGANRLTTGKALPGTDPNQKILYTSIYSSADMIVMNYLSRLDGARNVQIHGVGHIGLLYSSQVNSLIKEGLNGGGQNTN
In the case of B3, the Km [3] is reported as 39.2 ± 3.61 µM, the Vmax [3] is reported as 97.7 µM/min and the Vmax/Km [3] is reported as 2.49 min⁻¹.
